According to US20260263521A1 (AIMED BIO, published 2026):
Substitutions are numbered along the chain they refer to. Names and notes keep the numbering of the source.

T1: cynomolgus CD200R1 with dual His-tags (cynomolgus, UniProt G7NZT0 25-266)
T1 construct: Captured on the SPR chip by an anti-histidine antibody; also called CCD200R1-his; cCD200R1-his; not shown: dual His-tags
T1 sequence: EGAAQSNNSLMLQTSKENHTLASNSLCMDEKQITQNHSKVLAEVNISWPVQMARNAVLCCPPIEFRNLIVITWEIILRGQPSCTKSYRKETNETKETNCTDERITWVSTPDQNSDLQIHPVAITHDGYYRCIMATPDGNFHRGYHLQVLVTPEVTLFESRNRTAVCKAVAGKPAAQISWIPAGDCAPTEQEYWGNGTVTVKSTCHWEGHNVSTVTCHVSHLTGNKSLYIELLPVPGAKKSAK

T2: human CD200R1 with dual His-tags (human, UniProt Q8TD46 25-265)
T2 construct: Captured on the SPR chip by an anti-histidine antibody; also called hCD200R1-his; not shown: dual His-tags
T2 sequence (looked up): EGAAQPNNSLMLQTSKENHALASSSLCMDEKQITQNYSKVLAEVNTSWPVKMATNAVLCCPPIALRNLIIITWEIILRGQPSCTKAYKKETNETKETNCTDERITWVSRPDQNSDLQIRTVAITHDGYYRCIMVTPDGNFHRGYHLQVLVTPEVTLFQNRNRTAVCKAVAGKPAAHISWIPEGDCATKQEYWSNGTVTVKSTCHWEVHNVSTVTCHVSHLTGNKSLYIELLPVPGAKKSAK

T3: human CD200R1 expressed on cells (Jurkat-CD200R1, U937-CD200R1, HH cells) (human, UniProt Q8TD46 25-348)
T3 construct: whole, on cells; also called HH (CRL-2105); cell surface-expressed CD200R1
T3 sequence (looked up): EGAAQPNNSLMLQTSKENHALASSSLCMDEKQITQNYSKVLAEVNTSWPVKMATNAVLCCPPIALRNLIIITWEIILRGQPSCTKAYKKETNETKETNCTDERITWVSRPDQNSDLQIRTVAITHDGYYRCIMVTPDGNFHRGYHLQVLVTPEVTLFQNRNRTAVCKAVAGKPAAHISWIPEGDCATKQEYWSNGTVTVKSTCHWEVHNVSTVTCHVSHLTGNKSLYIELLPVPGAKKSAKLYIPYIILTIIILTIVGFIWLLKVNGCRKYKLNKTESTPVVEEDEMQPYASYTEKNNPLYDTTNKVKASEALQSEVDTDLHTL

T4: human CD200RLa (Sino Biological, 11620-H08H) recombinant protein (human, UniProt Q6Q8B3 24-239)
T4 construct: Bought; construct not described
T4 sequence (looked up): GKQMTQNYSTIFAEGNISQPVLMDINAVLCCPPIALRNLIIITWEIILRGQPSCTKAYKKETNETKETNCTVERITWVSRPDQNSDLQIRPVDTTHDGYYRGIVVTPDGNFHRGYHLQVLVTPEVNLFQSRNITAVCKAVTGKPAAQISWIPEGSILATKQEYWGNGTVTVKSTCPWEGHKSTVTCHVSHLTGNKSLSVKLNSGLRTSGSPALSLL

T5: mouse CD200R1 protein (R&D systems, 2554-CD) (mouse, UniProt Q9ES57 26-238, limits assumed)
T5 construct: Bought; construct not described
T5 sequence (looked up): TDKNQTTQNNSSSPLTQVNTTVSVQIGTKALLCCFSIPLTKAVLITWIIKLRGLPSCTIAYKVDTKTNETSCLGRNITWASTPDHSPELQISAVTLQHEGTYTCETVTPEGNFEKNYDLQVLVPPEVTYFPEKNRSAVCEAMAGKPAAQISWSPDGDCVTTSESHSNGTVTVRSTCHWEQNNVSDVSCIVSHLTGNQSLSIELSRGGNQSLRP

T6: human CD200R1 recombinant protein (construct not stated) (human, UniProt Q8TD46 27-266, limits assumed)
T6 sequence (looked up): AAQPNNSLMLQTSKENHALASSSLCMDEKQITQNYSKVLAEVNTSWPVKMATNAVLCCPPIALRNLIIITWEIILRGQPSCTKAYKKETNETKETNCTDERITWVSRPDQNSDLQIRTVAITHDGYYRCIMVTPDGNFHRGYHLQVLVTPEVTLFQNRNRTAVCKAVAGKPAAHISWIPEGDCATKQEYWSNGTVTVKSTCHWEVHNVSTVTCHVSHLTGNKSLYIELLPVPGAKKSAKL

B1: P001009v2 (antibody, V domains shown)
VH: EVQLLESGGGLVQPGGSLRLSCAASGFTFSSYDMSWVRQAPGKGLEWVSWISHGGGSIYYADSVKGRFTISRDNSKNTLYLQMNSLRAEDTAVYYCARDAPAYSAPLFDYWGQGTLVTVSS
VL: QSVLTQPPSASGTPGQRVTISCSGSSSNIGNNAVNWYQQLPGTAPKLLIYYDKNRPSGVPDRFSGSKSGTSASLAISGLRSEDEADYYCAAWDRSLSGYVFGGGTKLTVL
notes: P001009 with LC S52K and D93R (Kabat); also called P019001v2
B2: P001006 (IgG) (antibody, V domains shown)
VH: EVQLLESGGGLVQPGGSLRLSCAASGFTFSDYAMSWVRQAPGKGLEWVSGISYGNGNTYYADSVKGRFTISRDNSKNTLYLQMNSLRAEDTAVYYCAKDPWQTAINDFDYWGQGTLVTVSS
VL: B1 VL with S23T, A33S, Y51T, D52N, K53S, N54H, G58E, A90G, A91T, R94S
B3: P001009v3 (antibody, V domains shown)
VH: B1 VH
VL: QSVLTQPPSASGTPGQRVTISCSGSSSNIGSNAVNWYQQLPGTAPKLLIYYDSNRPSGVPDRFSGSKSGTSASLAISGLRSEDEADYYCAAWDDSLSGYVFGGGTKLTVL
notes: P001009 with LC N30S (Kabat); also called P019001v3
B4: P001009v4 (antibody, V domains shown)
VH: B1 VH
VL: B1 VL with N32K, K53S, R94D
notes: P001009 with LC N31K (Kabat); also called P019001v4
B5: 6C3 (hybridoma clone) (antibody, V domains shown)
VH: QVQLQQPGAELVRPGASVKLSCKASAYTFTSYWMNWVKQRPEQGLEWIGRIDPYDSETHYNQKFKDKAILTVDKSSSTAYMQLSSLTSEDSAVYYCARVDGNHLFDYWGQGTTLTVSS
VL: DIKMTQSPSSMYASLGERVTITCKASQDINSYLSWFQQKPGKSPKTLIYRANRLVDGVPSRFSGSGSGQDYSLTISSLEYEDMGIYYCLQYDEFPYTFGGGTKLEIK
B6: 5E9 (hybridoma clone) (antibody, V domains shown)
VH: QVQLQQSGAELARPGASVKLSCKASGYTFTSYWMQWVKQRPGQGLEWIGAIYPGDGDTRYTQKFKGKATLTADKSSSTAYMQLRSLASEDSAVFYCARGGVTTLVPYFFDYWGQGATLTVSS
VL: DVLMTQTPLSLPVSLGDQASISCRSSQSIVHSNGNTYLEWYLQKPGQSPKLLIYKVSNRFSGVPDRFSGSGSGTDFTLKISRVEAEDLGVYYCFQGSHVPPTFGGGTKLEIK
B7: 6A8 (hybridoma clone) (antibody, V domains shown)
VH: QVQLQQPGAELVKPGAPVKLSCKASGYTFTSYWMNWVKQRPGRGLEWIGRIDPSDSETHYNQKFKDKATLTVDKSSSTAYIQLSSLTSEDSAVYYCARSGGWLPGFAYWGQGTLVTVSA
VL: ENVLTQSPAIMSASPGEKVTMTCSASSSLSYMLWYQQKSSTSPKLWIYDTSKLASGVPGRFSGSGSGNSYSLTISSMEAEDVGTYYCFQGSGNPLMYTFGGGTKLEIK
B8: 3G4 (hybridoma clone) (antibody, V domains shown)
VH: B7 VH with Y27F, F29L, S84T
VL: B7 VL with S26R, L29V, L33H, S40R, G83A, N93D
B9: 1F1 (hybridoma clone) (antibody, V domains shown)
VH: B7 VH with L11F, S54A, T58I, L83F
VL: B7 VL with S30I, L33H, S75N, G83A, N93Y

Key:
[1] = molecular target: T1, cynomolgus CD200R1 with dual His-tags; assay: SPR (Biacore CM5), His-tagged antigen captured by anti-histidine antibody, antibody as analyte, 1:1 Langmuir fit
Description: (§1) For the experiment, 30 μg/mL of an anti-histidine antibody was conjugated to a CM5 biacore chip via an amine bond while allowing to flow at 10 μl/min (10,000 RU). Then, 0.25 μg/mL of human or cynomolgus CD200R1 with dual His-tags was captured onto the completed chip for 60 seconds, and the binding ability of each antibody was analyzed. All experiments were performed by association of antibodies for 120 seconds and dissociation of antibodies for 600 seconds. The resulting graphs were fitted using a 1:1 Langmuir binding kinetic model (FIG. 16), and the kinetics of each antibody were calculated.

[2] = molecular target: T2, human CD200R1 with dual His-tags; assay: as above
Description: as §1

[3] = molecular target: T3, human CD200R1 expressed on cells …; assay: flow cytometry, Jurkat-CD200R cells
Description: Two additional wells were treated with 10 μl of mouse IgG1K (BD, #555751) and 5 μl of commercial CD200R1 antibody (Biolegend, #329308) to determine CD200R1 expression on the cell line surface for cell quality control.
The antibodies were serially diluted 10-fold from a maximum concentration of 100 nM to 10 nM, 1 nM, […], and were added to the pre-seeded cells. After reaction for 1 hour at 4° C., the cells were treated with Alexa-647 goat anti-human IgG (H+L) cross-adsorbed secondary antibody (Invitrogen, #A21445) and incubated for an additional 30 minutes at 4° C. After washing twice with FACS buffer, flow cytometry was performed using a Novocyte Flow cytometer (Agilent). Using GraphPad Prism software, the EC₅₀ was determined using a nonlinear graph model of log (agonist) vs. response-variable slope, as shown in Table 32.

[4] = molecular target: T3, human CD200R1 expressed on cells …; assay: flow cytometry on Jurkat-CD200R1 and HH cells, 500 nM antibody in IgG1 form
Description: The cells were washed by centrifugation at 130 g for 5 minutes. The cells were seeded onto 96-well round-bottom plates (SPL, #34296) at a density of 1×10⁵ cells/well in Flow cytometry staining buffer (Invitrogen, #00-4222-26) or FACS buffer. […] After incubation for 1 hour at 4° C., the cells were treated with Alexa-647 Goat anti-human IgG (H+L) cross-adsorbed secondary antibody (Invitrogen, #A21445) and incubated at 4° C. for an additional 30 minutes. After washing twice with FACS buffer, flow cytometry analysis was performed using a Novocyte Flow cytometer (Agilent).

[5] = molecular target: T4, human CD200RLa (Sino Biological, …); assay: ELISA, plate-bound human CD200RLa (2 ug/mL), antibody 0.0192-300 nM, O.D 450 nm; panel 'recombinant human CD200RLa'
Description: 96-well plates were coated with human CD200RLa (Sino Biological, 11620-H08H) and monkey CD200RLa (Sino Biological, 11576-C02H) recombinant proteins at a concentration of 2 μg/mL at 4° C. for 16 hours, and blocked with 3% skim milk for 1 hour. […] Color was developed with a TMB substrate solution (Thermo Scientific, 34029, 1-Step™ Ultra TMB-ELISA Substrate Solution). The color reaction was stopped with stop solution (Invitrogen, SS04, ELISA Stop Solution).

[6] = molecular target: T5, mouse CD200R1 protein (R&D systems, …); assay: ELISA, plate-bound mouse CD200R1 (2 ug/mL), IgG 0.0192-300 nM, OD 450 nm; panel 'mouse CD200R1'
Description: 96-well plates were coated with human CD200R1 (R&D systems, 3414-CD) and mouse CD200R1 protein (R&D systems, 2554-CD) at a concentration of 2 μg/mL at 4° C. for 16 hours and then were blocked with 3% skim milk.
Color was developed with a TMB substrate solution (Thermo Scientific, 34029, 1-Step™ TMB-ELISA Ultra Substrate Solution). The color reaction was stopped with stop solution (Invitrogen, SS04, ELISA Stop Solution). The absorbance was measured at an optical density of 450 nm.

[7] = molecular target: T6, human CD200R1 recombinant protein …; assay: hybridoma ELISA on human CD200R1

Row | Binder | Kd [1] [nM] | koff [1] [s⁻¹] | kon [1] [M⁻¹ s⁻¹] | Kd [2] [nM] | koff [2] [s⁻¹] | kon [2] [M⁻¹ s⁻¹] | EC50 [3] [nM] | ELISA O.D. [7] [O.D.] | also measured
1 | B1 | 0.0286 | 8.08e-05 | 2.82e+06 | 0.87 | 0.00654 | 7.52e+06 | 3.08 |  | 
2 | B2 |  |  |  |  |  |  |  |  | MFI normalized to P001017 (chimeric OX108), % [4]: > 50%; binding result [5]: no binding (tested: 300 nM); binding result [6]: no binding (tested: 300 nM)
3 | B3 | 1.15 | 7.09 | 6.14e+09 | 0.109 | 0.000452 | 4.16e+06 | 0.33 |  | 
4 | B4 | 0.0822 | 0.000305 | 3.71e+06 | 1.04 | 0.007 | 6.74e+06 | 2.37 |  | 
5 | B5 |  |  |  |  |  |  |  | ≥ 1.5 | 
6 | B6 |  |  |  |  |  |  |  | ≥ 1.5 | 
7 | B7 |  |  |  |  |  |  |  | ≥ 1.5 | 
8 | B8 |  |  |  |  |  |  |  | ≥ 1.5 | 
9 | B9 |  |  |  |  |  |  |  | ≥ 1.5 | 
